According to patent US20220332795A1 (ARO BIOTHERAPEUTICS, published 2022):
Positions count from the first letter of the chain named.

B1: SEQ ID NO 204 (designed binder, not shown: small tags and cut ends)
chain: MLPAPKNLVVSRVTEDSARLSWTAPDAAFDSFFIGYLEPQPPGEAILLWVPGSERSYDLTGLKPGTEYNVTIQGVKGGFPSQFTT
B2: SEQ ID NO 232 (designed binder, not shown: small tags and cut ends)
chain: B1 chain with L47Y, W49D, Q82T
B3: SEQ ID NO 270 (designed binder, not shown: small tags and cut ends)
chain: MLPAPKNLVVSRVTEDSARLSWTAPDAAFDSFAIEYCETKMCGEAIVLTVPGSERSYDLTGLKPGTEYRVPIPGVKGGTASLPLSAIFTT
B4: SEQ ID NO 221 (designed binder, not shown: small tags and cut ends)
chain: MLPAPKNLVVSRVTEDSARLSWTAPDAAFDSFFIGYLEPQPPGEAIFLDVPGSERSYDLTGLKPGTEYNVTIQGVKGGFPSPLTAFFTT
B5: SEQ ID NO 243 (designed binder, not shown: small tags and cut ends)
chain: MLPAPKNLVVSRVTEDSARLSWTAPDAAFDSFFIGYLEPQPPGEAIHLAVPGSERSYDLTGLKPGTEYNVTIQGVKGGFPSVPLAAVFTT
B6: SEQ ID NO 251 (designed binder, not shown: small tags and cut ends)
chain: B5 chain with H47G, A49W, V82D, A85Q
B7: SEQ ID NO 223 (designed binder, not shown: small tags and cut ends)
chain: B5 chain with H47G, A85Q, V87N
B8: SEQ ID NO 208 (designed binder, not shown: small tags and cut ends)
chain: B5 chain with H47V, V82Y, A85V, V87A
B9: SEQ ID NO 231 (designed binder, not shown: small tags and cut ends)
chain: B5 chain with A49Y, V82D, A85D
B10: SEQ ID NO 210 (designed binder, not shown: small tags and cut ends)
chain: B5 chain with H47N, A49Q, V82F, A85S
B11: SEQ ID NO 222 (designed binder, not shown: small tags and cut ends)
chain: B5 chain with H47V, A49D, V82H, V87A
B12: SEQ ID NO 203 (designed binder, not shown: small tags and cut ends)
chain: B5 chain with H47V, A49L, V87F
B13: SEQ ID NO 205 (designed binder, not shown: small tags and cut ends)
chain: MLPAPKNLVVSRVTEDSARLSWTAPDAAFDSFFIGYLEPQPPGEAILLGVPGSERSYDLTGLKPGTEYNVTIQGVKGGFPSMPLHPLVALFTT
B14: SEQ ID NO 213 (designed binder, not shown: small tags and cut ends)
chain: MLPAPKNLVVSRVTEDSARLSWTAPDAAFDSFYIAYAEPRPDGEAILLGVPGSERSYDLTGLKPGTEYSVLIHGVKGGLLSSPLFTT
B15: SEQ ID NO 268 (designed binder, not shown: small tags and cut ends)
chain: B14 chain with L47Y, G49E
B16: SEQ ID NO 216 (designed binder, not shown: small tags and cut ends)
chain: MLPAPKNLVVSRVTEDSARLSWTAPDAAFDSFYIAYAEPRPDGEAISLSVPGSERSYDLTGLKPGTEYSVLIHGVKGGLLSSPPKFTT
B17: SEQ ID NO 238 (designed binder, not shown: small tags and cut ends)
chain: B16 chain with A24T, S47R, S49Q, P84L, K85G
B18: SEQ ID NO 249 (designed binder, not shown: small tags and cut ends)
chain: MLPAPKNLVVSRVTEDSARLSWTAPDAAFDSFYIAYAEPRPDGEAIVLEVPGSERSYDLTGLKPGTEYSVLIHGVKGGLLSSPLHANFTT
B19: SEQ ID NO 253 (designed binder, not shown: small tags and cut ends)
chain: B18 chain with V47I, E49H, H85D, N87Y
B20: SEQ ID NO 255 (designed binder, not shown: small tags and cut ends)
chain: B5 chain with H47L, A49F, V82T, A85S, V87S
B21: SEQ ID NO 259 (designed binder, not shown: small tags and cut ends)
chain: B18 chain with V47Q, E49G, H85L, N87V
B22: SEQ ID NO 263 (designed binder, not shown: small tags and cut ends)
chain: B18 chain with V47A, E49V, H85A
B23: SEQ ID NO 250 (designed binder, not shown: small tags and cut ends)
chain: B18 chain with V47L, E49R, H85Y, N87K
B24: SEQ ID NO 256 (designed binder, not shown: small tags and cut ends)
chain: B18 chain with V47Q, E49T, N87Y
B25: SEQ ID NO 254 (designed binder, not shown: small tags and cut ends)
chain: B18 chain with V47L, E49A, H85S, N87K
B26: SEQ ID NO 265 (designed binder, not shown: small tags and cut ends)
chain: B18 chain with H85T, N87S
B27: SEQ ID NO 261 (designed binder, not shown: small tags and cut ends)
chain: B18 chain with V47L, E49Q, H85I, N87K
B28: SEQ ID NO 257 (designed binder, not shown: small tags and cut ends)
chain: B18 chain with V47Q, E49G, H85R, N87Y
B29: SEQ ID NO 262 (designed binder, not shown: small tags and cut ends)
chain: B18 chain with E49H, H85Q, N87I
B30: SEQ ID NO 269 (designed binder, not shown: small tags and cut ends)
chain: B18 chain with V47W, E49D, H85D, N87Y
B31: SEQ ID NO 266 (designed binder, not shown: small tags and cut ends)
chain: B18 chain with V47R, E49Q, H85G, N87S
B32: SEQ ID NO 252 (designed binder, not shown: small tags and cut ends)
chain: B18 chain with E49H, H85D, N87F
B33: SEQ ID NO 264 (designed binder, not shown: small tags and cut ends)
chain: B18 chain with V47N, E49S, H85D, N87Y
B34: SEQ ID NO 267 (designed binder, not shown: small tags and cut ends)
chain: B18 chain with V47G, E49W, H85V, N87Y
B35: SEQ ID NO 260 (designed binder, not shown: small tags and cut ends)
chain: B5 chain with F33Y, G35A, L37A, Q40R, P42D, A49R, V82M, A85S, V87I
B36: SEQ ID NO 258 (designed binder, not shown: small tags and cut ends)
chain: B18 chain with V47L, H85V, N87F

target: T1, human CD71 extracellular domain (human, UniProt P02786 89-760, biotinylated); assay: solution ELISA screen (luminescence)
T1 construct: extracellular domain; also called hCD71; huCD71 ECD
T1 sequence (P02786 other isoform, or with tags, fused parts or gaps): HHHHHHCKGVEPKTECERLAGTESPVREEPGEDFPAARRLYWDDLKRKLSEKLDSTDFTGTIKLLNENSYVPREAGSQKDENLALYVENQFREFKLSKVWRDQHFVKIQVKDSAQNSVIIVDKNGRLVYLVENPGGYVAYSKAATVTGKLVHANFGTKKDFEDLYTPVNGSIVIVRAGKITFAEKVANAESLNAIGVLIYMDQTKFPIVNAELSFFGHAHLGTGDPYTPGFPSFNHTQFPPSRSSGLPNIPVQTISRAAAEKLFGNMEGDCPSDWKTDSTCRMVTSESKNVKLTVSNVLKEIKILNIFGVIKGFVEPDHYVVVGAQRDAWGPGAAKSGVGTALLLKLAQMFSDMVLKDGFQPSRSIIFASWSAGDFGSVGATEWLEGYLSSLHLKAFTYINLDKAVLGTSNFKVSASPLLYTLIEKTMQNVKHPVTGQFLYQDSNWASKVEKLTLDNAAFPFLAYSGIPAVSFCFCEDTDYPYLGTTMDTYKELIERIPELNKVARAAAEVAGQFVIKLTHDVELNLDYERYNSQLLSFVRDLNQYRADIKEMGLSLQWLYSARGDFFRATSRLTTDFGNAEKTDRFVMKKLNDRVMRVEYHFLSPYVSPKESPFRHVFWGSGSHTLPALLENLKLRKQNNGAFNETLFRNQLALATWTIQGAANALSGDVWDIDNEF

| Binder | RLU |
| --- | --- |
| B1 | 3.29e+06 RLU |
| B2 | 1.08e+06 RLU |
| B3 | 3.32e+06 RLU |
| B4 | 966000 RLU |
| B5 | 1.97e+06 RLU |
| B6 | 2.51e+06 RLU |
| B7 | 1.93e+06 RLU |
| B8 | 3e+06 RLU |
| B9 | 2.32e+06 RLU |
| B10 | 2.41e+06 RLU |
| B11 | 1.47e+06 RLU |
| B12 | 2.38e+06 RLU |
| B13 | 2.81e+06 RLU |
| B14 | 1.73e+06 RLU |
| B15 | 2.77e+06 RLU |
| B16 | 4.15e+06 RLU |
| B17 | 3.07e+06 RLU |
| B18 | 4.94e+06 RLU |

| Binder | RLU |
| --- | --- |
| B19 | 3.47e+06 RLU |
| B20 | 5.02e+06 RLU |
| B21 | 1.26e+06 RLU |
| B22 | 584000 RLU |
| B23 | 724000 RLU |
| B24 | 2.07e+06 RLU |
| B25 | 2.24e+06 RLU |
| B26 | 5.77e+06 RLU |
| B27 | 2.39e+06 RLU |
| B28 | 802000 RLU |
| B29 | 3.94e+06 RLU |
| B30 | 812000 RLU |
| B31 | 418000 RLU |
| B32 | 4.34e+06 RLU |
| B33 | 368000 RLU |
| B34 | 573000 RLU |
| B35 | 4.88e+06 RLU |
| B36 | 5.4e+06 RLU |

target: T2, CD71 apical domain (human, UniProt P02786 189-383, limits assumed); assay: solution ELISA screen (luminescence)
T2 construct: domain: apical domain
T2 sequence (P02786 189-383 limits assumed): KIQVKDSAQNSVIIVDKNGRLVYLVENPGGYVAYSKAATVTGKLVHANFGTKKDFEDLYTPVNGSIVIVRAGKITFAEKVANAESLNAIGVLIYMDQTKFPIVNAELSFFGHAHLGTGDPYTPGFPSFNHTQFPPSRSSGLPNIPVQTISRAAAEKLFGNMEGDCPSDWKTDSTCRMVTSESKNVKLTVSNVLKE

| Binder | RLU |
| --- | --- |
| B1 | 6.35e+06 RLU |
| B2 | 95400 RLU |
| B3 | 6.49e+06 RLU |
| B4 | 31800 RLU |
| B5 | 3.19e+06 RLU |
| B6 | 5.73e+06 RLU |
| B7 | 3.6e+06 RLU |
| B8 | 3.7e+06 RLU |
| B9 | 6.83e+06 RLU |
| B10 | 4.12e+06 RLU |
| B11 | 1.07e+06 RLU |
| B12 | 5.69e+06 RLU |
| B13 | 150000 RLU |
| B14 | 2.03e+06 RLU |
| B15 | 94800 RLU |
| B16 | 142000 RLU |
| B17 | 112000 RLU |
| B18 | 7.43e+06 RLU |

| Binder | RLU |
| --- | --- |
| B19 | 7.21e+06 RLU |
| B20 | 7.08e+06 RLU |
| B21 | 5.96e+06 RLU |
| B22 | 4.37e+06 RLU |
| B23 | 5.54e+06 RLU |
| B24 | 5.84e+06 RLU |
| B25 | 6.62e+06 RLU |
| B26 | 7.21e+06 RLU |
| B27 | 93200 RLU |
| B28 | 4.84e+06 RLU |
| B29 | 7.13e+06 RLU |
| B30 | 5.56e+06 RLU |
| B31 | 4.23e+06 RLU |
| B32 | 7.57e+06 RLU |
| B33 | 4.32e+06 RLU |
| B34 | 5.55e+06 RLU |
| B35 | 7.05e+06 RLU |
| B36 | 7.34e+06 RLU |

target: T1, human CD71 extracellular domain; assay: solution ELISA screen, signal ratio to HSA control

| Binder | hCD71:HSA |
| --- | --- |
| B1 | 164 ratio |
| B2 | 14.3 ratio |
| B3 | 51.6 ratio |
| B4 | 16.4 ratio |
| B5 | 63.8 ratio |
| B6 | 96.1 ratio |
| B7 | 105 ratio |
| B8 | 184 ratio |
| B9 | 112 ratio |
| B10 | 49.7 ratio |
| B11 | 94.5 ratio |
| B12 | 91.6 ratio |
| B13 | 18.1 ratio |
| B14 | 24.6 ratio |
| B15 | 23.6 ratio |
| B16 | 21.6 ratio |
| B17 | 31 ratio |
| B18 | 205 ratio |

| Binder | hCD71:HSA |
| --- | --- |
| B19 | 92 ratio |
| B20 | 49.1 ratio |
| B21 | 49.7 ratio |
| B22 | 24.5 ratio |
| B23 | 15 ratio |
| B24 | 27.2 ratio |
| B25 | 104 ratio |
| B26 | 188 ratio |
| B27 | 13.7 ratio |
| B28 | 26.9 ratio |
| B29 | 128 ratio |
| B30 | 40.8 ratio |
| B31 | 11.6 ratio |
| B32 | 59.6 ratio |
| B33 | 15.1 ratio |
| B34 | 19.2 ratio |
| B35 | 146 ratio |
| B36 | 204 ratio |

target: T2, CD71 apical domain; assay: solution ELISA screen, signal ratio to HSA control

| Binder | apical domain:HSA |
| --- | --- |
| B1 | 317 ratio |
| B2 | 1.3 ratio |
| B3 | 101 ratio |
| B4 | 0.5 ratio |
| B5 | 103 ratio |
| B6 | 220 ratio |
| B7 | 197 ratio |
| B8 | 226 ratio |
| B9 | 331 ratio |
| B10 | 85 ratio |
| B11 | 69 ratio |
| B12 | 219 ratio |
| B13 | 1 ratio |
| B14 | 28.9 ratio |
| B15 | 0.8 ratio |
| B16 | 0.7 ratio |
| B17 | 1.1 ratio |
| B18 | 308 ratio |

| Binder | apical domain:HSA |
| --- | --- |
| B19 | 191 ratio |
| B20 | 69.3 ratio |
| B21 | 235 ratio |
| B22 | 184 ratio |
| B23 | 114 ratio |
| B24 | 76.7 ratio |
| B25 | 308 ratio |
| B26 | 235 ratio |
| B27 | 0.5 ratio |
| B28 | 162 ratio |
| B29 | 231 ratio |
| B30 | 279 ratio |
| B31 | 117 ratio |
| B32 | 104 ratio |
| B33 | 177 ratio |
| B34 | 186 ratio |
| B35 | 211 ratio |
| B36 | 277 ratio |
